Measured values: the DeepSol protein solubility set

assay: soluble on expression in E. coli; label from the status in PepcDB or PDB records

Sequence	soluble on expression in E. coli
MVKQIESKTAFQEALDAAGDKLVVVDFSATWCGPCKMIKPFFHSLSEKYSNVIFLEVDVDDCQDVASECEVKCMPTFQFFKKGQKVGEFSGANKEKLEATINELV	soluble
NTTHAYVHASPPHSVPIAGASTAAVTHQQATQLKGTDELYGLGNLPSSGPGRWEYLANPENWHPERRKLHEKLLDEARSSALTLAESLERDGCQPTLFALRGNTATGKTRIATKKIPALAAALEKTGGKGCINPDVFKSSLAKSEAGAKIFSSAQVHNESCFLADHFEDGLRSQRTGSGAIASIVVDKRLARAYEIDSYIELAKETGRKVELCDIDAPLENSLTGVLQRKPEGEDPRPPYPVVSSGFVAVRSNRMSVIDRFIADPSLGNYRLFGTAEDGKKVMVASVMGGELSVEDADLYEKITSPQSSVTGDLADKIIDNELIDRLTNNIDDPERAANTRAALEKYNGKSWSAALAAHSELI	not soluble
MTIDNYDNSKQDSSKYEVSGTGDGRNGDGGLPLVQCVARARIPTTQGPDIFLHLYSNNRDNKEHLAIVFGEDIRSRSLFRRRQCETQQDRMIRGAYIGKLYPGRTVADEDDRLGLALEFDDSTGELLASKATTWDAHNDTLVRIHSECYTGENAWSARCDCGEQFDRAGRLIACDHEPTSNIKGGNGHGVIVYLRQEGRGIGLGEKLKAYNLQDLGADTVQANLMLKHPVDARDFSLGKAILLDLGIGNVRLLTNNPEKIKQVDHAPYLKCVERVPMVPIHWTNSSEGIDSKEIEGYLRTKIERMGHLLTEPLKLHTNPQPTETSEAQNQNRMNSALSSTSTLAI	soluble
MSSDAISLRAAGPGDLPGLLELYQVLNPSDPELTTQEAGAVFAAMLAQPGLTIFVATENGKPVATATLLIVPNLTRAARPYAFIENVVTLEARRGRGYGRTVVRHAIETAFGANCYKVMLLTGRHDPAVHAFYESCGFVQNKTGFQIRQD	soluble
MFDRLLSQFGRKRVASESVATQQQLTDRTNVYTVKPQDPLLDKKQKMTPVQKVCLKCLAGESGHITHVLSSLSN	not soluble
MGSDKIHHHHHHCKDNDDATGDFDPNKPVVISEFSPKEGGLGTRMLLYGENFGSDISKIKVTIGGQDSKVVGAKGKSLYCVVPAKAYDGDIKLSILNDEGEEIANTEANEKFVYQKKMLVTTFLGTMYDGNTKYDLKDGPFDDCGGFGGAVWLSFDPKNHNHLYLVGEQHPTRLIDFEKEYVSTVYSGLSKVRTICWTHEADSMIITNDQNNNDRPNNYILTRESGFKVITELTKGQNCNGAETHPINGELYFNSWNAGQVFRYDFTTQETTPLFTIQDSGWEFHIQFHPSGNYAYIVVVNQHYILRSDYDWKTKRLTTPYIVCGQQGAKDWVDGVGKKARMHAPRQGTFVKNPAYKGSSDEYDFYFCDRENHCIRILTPQGRVTTFAGRGSNGTSGYNDGDLRQEARFNHPEGIVYDEERECFFIGDRENRRIRKIGYEE	not soluble
SNAMATFMTEDFLLKNDIARTLYHKYAAPMPIYDFHCHLSPQEIADDRRFDNLGQIWLEGDHYKWRALRSAGVDESLITGKETSDYEKYMAWANTVPKTLGNPLYHWTHLELRRPFGITGTLFGPDTAESIWTQCNEKLATPAFSARGIMQQMNVRMVGTTDDPIDSLEYHRQIAADDSIDIEVAPSWRPDKVFKIELDGFVDYLRKLEAAADVSITRFDDLRQALTRRLDHFAACGCRASDHGIETLRFAPVPDDAQLDAILGKRLAGETLSELEIAQFTTAVLVWLGRQYAARGWVMQLHIGAIRNNNTRMFRLLGPDTGFDSIGDNNISWALSRLLDSMDVTNELPKTILYCLNPRDNEVLATMIGNFQGPGIAGKVQFGSGWWFNDQKDGMLRQLEQLSQMGLLSQFVGMLTDSRSFLSYTRHEYFRRILCNLLGQWAQDGEIPDDEAMLSRMVQDICFNNAQRYFTIK	soluble
MDKVYLTWWQVDRAIFALAEKLREYKPDVIIGVARGGLIPAVRLSHILGDIPLKVIDVKFYKGIDERGEKPVITIPIHGDLKDKRVVIVDDVSDTGKTLEVVIEEVKKLGAKEIKIACLAMKPWTSVVPDYYVFRTEKWIVFPWEEFPVIEKE	soluble
MPFIECHIATGLSVARKQQLIRDVIDVTNKSIGSDPKIINVLLVEHAEANMSISGRIHGEAASTERTPAVS	soluble
GINDLDISPIDPQTGGSFDQQGVFVKGYAMLGVTGQKGIDGSPDLDGQDEGESGFYRTTFNCNELPTDECLWAWQKNQDIPQLTSISWSPSSQRTEWVYVRLGYDITQYNFFLDQTEGMTDAETLRQRAEIRFLRALHYWYFLDLFGKAPFKEHFSNDLPVEKKGTELYTYIQNELNEIEADMYEPRQAPFGRADKAANWLLRARLYLNAGVYTGQTDYAKAEEYASKVIGSAYKLCTNYSELFMADNDENENAMQEIILPIRQDGVKTRNYGGSTYLVCGTRVAGMPRMGTTNGWSCIFARAAMVQKFFSNLEDVPMLPADVEIPTKGLDTDEQIDAFDAEHGIRTEDMIKAAGDDRALLYSGVGGGRRKIQTDAISGFTDGLSIVKWQNYRSDGKPVSHATYPDTDIPLFRLAEAYLTRAEAIFRQGGDATGDINELRKRANCTRKVQTVTEQELIDEWAREFYLEGRRRSDLVRFGMFTTNKYLWDWKGGAMNGTSVASYYNKYPIPVSDINNNRNMSQNEGYK	soluble
GSSTVTLPETLLFVSTLDGSLHAVSKRTGSIKWTLKEDPVLQVPTHVEEPAFLPDPNDGSLYTLGSKNNEGLTKLPFTIPELVQASPCRSSDGILYMGKKQDIWYVIDLLTGEKQQTLSSAFADSLSPSTSLLYLGRTEYTITMYDTKTRELRWNATYFDYAASLPEDDVDYKMSHFVSNGDGLVVTVDSESGDVLWIQNYASPVVAFYVWQREGLRKVMHINVAVETLRYLTFMSGEVGRITKWKYPFPKETEAKSKLTPTLYVGKYSTSLYASPSMVHEGVAVVPRGSTLPLLEGPQTDGVTIGDKGESVITPSTDVKFDPGLKSKNKLNYLRNYWLLIGHHETPLSASTKMLERFPNNLPKHRENV	soluble
SKKFSWNTSFNFTRNVNKVEKLENPYVYGSRDMVRNEEGYALYSFWMYNQLYVDKQTGQAVFEDVNGDGQITVADRKIMGNANPKFFGGLTNTFKYAGFDLNVFFVYQYGNKVVSFDRILNEGGGTKDNNRGIFEYNMNRWQKPGDDTDVPRVTSVGNNYGIEQNSRFLEDGSFIRLKTLTLGYTVPVDFTKKYSVQSVRFFVTGTNLLLFTKYKGPDPEAVHTSEQNARGIDVGTPPQPVSVQGGLTITL	not soluble
MTWKNFGFEIFGEKYGQEELEKRIKDEHTPPPDSPVFGGLKLKLKKEKFKTLFTLGTTLKGFRRATHTVGTGGIGEITIVNDPKFPEHEFFTAGRTFPARLRHANLKYPDDAGADARSFSIKFADSDSDGPLDIVMNTGEANIFWNSPSLEDFVPVEEGDAAEEYVYKNPYYYYNLVEALRRAPDTFAHLYYYSQVTMPFKAKDGKVRYCRYRALPGDVDIKEEDESGRLTEEEQRKIWIFSRHENEKRPDDYLRKEYVERLQKGPVNYRLQIQIHEASPDDTATIFHAGILWDKETHPWFDLAKVSIKTPLSPDVLEKTAFNIANQPASLGLLEAKSPEDYNSIGELRVAVYTWVQHLRKLKIGSLVPAGQNAIYNVEVETGDREHAGTDATITIRITGAKGRTDYLKLDKWFHNDFEAGSKEQYTVQGFDVGDIQLIELHSDGGGYWSGDPDWFVNRVIIISSTQDRVYSFPCFRWVIKDMVLFPGEATLPFNEVPAIVSEQRQKELEQRKLTYQWDYVSDDMPGNIKAKTHDDLPRDVQFTDEKSRSYQESRKAALVNLGIGSLFTMFENWDSYDDYHILYRNWILGGTPNMADRWHEDRWFGYQFLNGANPVILTRCDALPSNFPVTNEHVNASLDRGKNLDEEIKDGHIYIVDFKVLVGAKSYGGPVLEDIGYKVPDHLKHDEADIRYCAAPLALFYVNKLGHLMPIAIQINQEPGPENPIWTPHEENEHDWMMAKFWLGVAESNFHQLNTHLLRTHLTTESFALSTWRNLASAHPIFKLLQPHIYGVLAIDTIGRKELIGSGGIVDQSLSLGGGGHVTFMEKCFKEVNLQDYHLPNALKKRGVDDPSKLPGFYYRDDGLALWEAIETFIGEIIAIFYKNDDDVKRDNEIQSWIYDVHKNGWRVNPGHQDHGVPASFESREQLKEVLTSLVFTFSCQHAAVNFSQKDHYGFTPNAPAILRHPPPKKKGEATLQSILSTLPSKSQAAKAIATVYILTKFSEDERYLGNYSATAWEDKDALDAINRFQDKLEDISKKIKQRNENLEVPYIYLLPERIPNGTAI	soluble
MIEAALENPVPIKSQLSPTPRYFGSCKWFNVSKGYGFVIDDITGEDLFVHQSNLNMQGFRSLDEGERVSYYIQERSNGKGREAYAVSGEVEGQGLKGSRIHPLGRKKAVSLRCFRCGKFATHKAKSCPNVKTDAKVCYTCGSEEHVSSICPERRRKHRPEQVAAEEAEAARMAAEKSSPTTSDDDIREKNSNSSDE	soluble
MSLFHPEISGEWGAVKGDNIELLLNVDLSNPSPAPILLETIKVKLAGVKIGETKRANIAIFSRKVTIDSIINLDNLTTALINHIKEKEESTVSVYAKLELFDVIPVEYSRDVNFQTDLLSYLKNLRVEPKIYSIGGIPLKTPGIEGMDAKWGRVSNDSIEIIGWLKLYNPNSFPIPVTGLSADLYMNSVNIGKGVILKGTVLQPNSRGEVKVKLVLDVDNFKEAFKTHITNGERSTIRADINLVVKVGGVEYEIPIKDIETTFETDILGSIKFGEGHHHHHH	soluble
MRKWETFIIDYMNKSKKTFVKTIDIEHHLKTLLKQEYDDDGGYFKYSSTLKNMVEEEKIQPVKARGHNHQTPPVFNEYRLVKKERRTNPTHIKKLMTDYLLFNMTAFYDEAEFEKWKFYIDRVHAFLTQNSDTKNNILKANERSFELFRNEKFLLDKEGTKFLANLGLTLSDLNCRRTYEPFVEYQPNPSKKPKNILIIENRDTFDSIKELMIDGIDTWSRITFDMVIYGEGDKIQRSFYFLEEYELEDYEVYYFGDLDARGIHICSELIKIDNRVKPFIPFYIELLNRYGHEPSTRTIERKLKQTIIDDSLKLFSSFFEGDYIDELKRYTDIIQNVQIYIPQEGLNLVILRKLGERR	not soluble
MGSSHHHHHHSSGRENLYFQGMPSLTPRCIIVRAGQTEWSKSGQYTGLTDLPLTPYGEGQMLRTGESVFRNNQFLNPDNITYIFTSPRLRARQTVDLVLKPLSDEQRAKIRVVVDDDLREWEYGDYEGMLTREIIELRKSRGLDKERPWNIWRDGCENGETTQQIGLRLSRAIARIQNLHRKHQSEGRASDIMVFAHGHALRYFAAIWFGLGVQKKCETIEEIQNVKSYDDDTVPYVKLESYRHLVDNPCFLLDAGGIGVLSYAHHNIDEPALELAGPFVSPPEEESQHGDV	soluble
MGEVFKMDGLASTILEVHKPAKLEDIPDEDPIAIILALKWLEYLCERAGVENVSDILDFYYMLGWLGDKALAKLLKFLKGIKVDEENVVEGSGKLNITDHIISLLFIERLNGKKISAELLDKIEWELRKIKKGAEQFYGI	not soluble
MSLHELKAAAFPQTTEKISPNWESGINVDLAISTRQYHMQQLFYRYGENNSLSVEGFRKLLQNIGIDKIKRIHIHHDHDHHSDHEHHSDHERHSDHEHHSDHEHHSDHNHAASGKNKRKALCPDHDSDSSGKDPRNSQGKGAHRPEHASGRRNVKDSVSASEVTSTVYNTVSEGTHFLETIETPRPGKLFPKDVSSSTPPSVTSKSRVSRLAGRKTNESVSEPRKGFMYSRNTNENPQECFNASKLLTSHGMGIQVPLNATEFNYLCPAIINQIDARSCLIHTSEKEGHHHHHH	not soluble
YDYSNPATLFTLSDIGVSAHRYHNRLDIFTQSLENGAAQQGIEVSLLNEKGQTLTQASSDAQGHVQLENDKNAALLLARKNGQTTLLDLKLPALDLAEFNIAGAPGYSKQFFMFGPRDLYRPGETVILNGLLRDADGKALPDQPIKLDVIKPDGQVLRSVVSQPENGLYHFTWPLDSNAATGMWHIRANTGDNQYRMWDFHVEDFMPERMALNLTGEKTPLTPKDEVKFSVVGYYLYGAPANGNTLQGQLFLRPLREAVSALPGFEFGDIAA	not soluble
